± gives the standard deviation of the averaged measurements.
Test: total protein half-life in vivo (active degradation + dilution); higher = more stable protein
[1] = wild type E. coli NCM3722, growth: C-lim chemostat, doubling time 6 h
[2] = wild type E. coli NCM3722, growth: C-lim chemostat, doubling time 12 h
[3] = wild type E. coli NCM3722, growth: P-lim chemostat, doubling time 6 h
[4] = wild type E. coli NCM3722, growth: P-lim chemostat, doubling time 12 h
[5] = E. coli NCM3722 delta-clpP delta-lon delta-hslV, growth: N-lim chemostat, doubling time 6 h
[6] = E. coli NCM3722 delta-clpP, growth: N-lim chemostat, doubling time 6 h
[7] = E. coli NCM3722 delta-hslV, growth: N-lim chemostat, doubling time 6 h
[8] = E. coli NCM3722 delta-lon, growth: N-lim chemostat, doubling time 6 h
[9] = E. coli NCM3722 delta-smpB, growth: N-lim chemostat, doubling time 6 h
[10] = wild type E. coli NCM3722, growth: C-lim chemostat, doubling time 3 h
[11] = wild type E. coli NCM3722, growth: N-lim chemostat, doubling time 6 h
[12] = wild type E. coli NCM3722, growth: N-lim chemostat, doubling time 12 h

Sequence | total protein half-life in vivo [1] | total protein half-life in vivo [2] | total protein half-life in vivo [3] | total protein half-life in vivo [4] | total protein half-life in vivo [5] | total protein half-life in vivo [6] | total protein half-life in vivo [7] | total protein half-life in vivo [8] | total protein half-life in vivo [9] | total protein half-life in vivo [10] | total protein half-life in vivo [11] | total protein half-life in vivo [12]
MAINFSPKVGEILECNFGNYPVSQNGPFSTTYYDGRIPPEMIKNRLVVVLNGKINGNACIVVPLSTTRDQDKLKRGMHVEIASNVINDLQFFDQQIRWAKADLVQQVSRNRLNRARTYRGYLNQCLPHELVADIQRAVIKSINAISLIN | 6.12 h | 8.7 ± 2 h | 4.05 h | 8.56 ± 0.1 h | – | – | – | – | – | – | – | –
MAISIKTPEDIEKMRVAGRLAAEVLEMIEPYVKPGVSTGELDRICNDYIVNEQHAVSACLGYHGYPKSVCISINEVVCHGIPDDAKLLKDGDIVNIDVTVIKDGFHGDTSKMFIVGKPTIMGERLCRITQESLYLALRMVKPGINLREIGAAIQKFVEAEGFSVVREYCGHGIGRGFHEEPQVLHYDSRETNVVLKPGMTFTIEPMVNAGKKEIRTMKDGWTVKTKDRSLSAQYEHTIVVTDNGCEILTLRKDDTIPAIISHDE [P0AE18] | 5.52 ± 0.18 h | 10.4 ± 0.64 h | 6.04 ± 0.15 h | 12.19 ± 0.095 h | 5.22 ± 1 h | 4.545 ± 0.041 h | 4.71 ± 0.14 h | 5.3 ± 0.74 h | 4.36 ± 0.17 h | 3.53 ± 0.17 h | 4.42 ± 0.58 h | 6.93 ± 0.49 h
MAKAPKRAFVCNECGADYPRWQGQCSACHAWNTITEVRLAASPMVARNERLSGYAGSAGVAKVQKLSDISLEELPRFSTGFKEFDRVLGGGVVPGSAILIGGNPGAGKSTLLLQTLCKLAQQMKTLYVTGEESLQQVAMRAHRLGLPTDNLNMLSETSIEQICLIAEEEQPKLMVIDSIQVMHMADVQSSPGSVAQVRETAAYLTRFAKTRGVAIVMVGHVTKDGSLAGPKVLEHCIDCSVLLDGDADSRFRTLRSHKNRFGAVNELGVFAMTEQGLREVSNPSAIFLSRGDEVTSGSSVMVVWEGTRPLLVEIQALVDHSMMANPRRVAVGLEQNRLAILLAVLHRHGGLQMADQDVFVNVVGGVKVTETSADLALLLAMVSSLRDRPLPQDLVVFGEVGLAGEIRPVPSGQERISEAAKHGFRRAIVPAANVPKKAPEGMQIFGVKKLSDALSVFDDL | 4.894 ± 0.039 h | 8.52 ± 1.8 h | 5.64 ± 0.66 h | 10.2 ± 0.85 h | 4.95 ± 0.18 h | 4.7 ± 0.74 h | 4.63 ± 1.1 h | – | 3.88 ± 0.27 h | 2.88 ± 0.043 h | 3.65 ± 0.14 h | 5.76 ± 0.49 h
MAKEISSELLNTILTRVGGPGNIASCGNCMTRLRLGVHDSSLVDPNIKTLEGVKGVILTSDQVQVVFGPGKAHRAAKAMSELLGEAPVQDAAEIAAQNKRQLKAKQTSGVQQFLAKFATIFTPLIPGFIAAGLLLGIATLIATVMHVPADAQGTLPDALNFMKVFSKGLFTFLVILVGYNAAQAFGGTGVNGAIIAALFLLGYNPAATTGYYAGFHDFFGLPIDPRGNIIGVLIAAWACARIEGMVRRFMPDDLDMLLTSLITLLITATLAYLIIMPLGGWLFEGMSWLFMHLNSNPFGCAVLAGLFLIAVVFGVHQGFIPVYLALMDSQGFNSLFPILSMAGAGQVGAALALYWRAQPHSALRSQVRGAIIPGLLGVGEPLIYGVTLPRMKPFVTACLGGAAGGLFIGLIAWWGLPMGLNSAFGPSGLVALPLMTSAQGILPAMAVYAGGILVAWVCGFIFTTLFGCRNVNLD | 5.06 h | – | – | – | 3.66 h | 3.67 h | – | – | 6.02 h | 3.48 h | 5.006 ± 0.029 h | –
MAKLTLQEQLLKAGLVTSKKAAKVERTAKKSRVQAREARAAVEENKKAQLERDKQLSEQQKQAALAKEYKAQVKQLIEMNRITIANGDIGFNFTDGNLIKKIFVDKLTQAQLINGRLAIARLLVDNNSEGEYAIIPASVADKIAQRDASSIVLHSALSAEEQDEDDPYADFKVPDDLMW | 3.23 ± 0.14 h | 4.09 ± 0.13 h | 2.17 ± 0.44 h | 4.41 ± 0.084 h | 5.344 ± 0.0096 h | 4.88 ± 0.16 h | 2.22 ± 0.1 h | 2.88 h | 2.37 h | 2.24 ± 0.012 h | 1.95 ± 0.37 h | 2.45 ± 0.67 h
MAKMRAVDAAMYVLEKEGITTAFGVPGAAINPFYSAMRKHGGIRHILARHVEGASHMAEGYTRATAGNIGVCLGTSGPAGTDMITALYSASADSIPILCITGQAPRARLHKEDFQAVDIEAIAKPVSKMAVTVREAALVPRVLQQAFHLMRSGRPGPVLVDLPFDVQVAEIEFDPDMYEPLPVYKPAASRMQIEKAVEMLIQAERPVIVAGGGVINADAAALLQQFAELTSVPVIPTLMGWGCIPDDHELMAGMVGLQTAHRYGNATLLASDMVFGIGNRFANRHTGSVEKYTEGRKIVHIDIEPTQIGRVLCPDLGIVSDAKAALTLLVEVAQEMQKAGRLPCRKEWVADCQQRKRTLLRKTHFDNVPVKPQRVYEEMNKAFGRDVCYVTTIGLSQIAAAQMLHVFKDRHWINCGQAGPLGWTIPAALGVCAADPKRNVVAISGDFDFQFLIEELAVGAQFNIPYIHVLVNNAYLGLIRQSQRAFDMDYCVQLAFENINSSEVNGYGVDHVKVAEGLGCKAIRVFKPEDIAPAFEQAKALMAQYRVPVVVEVILERVTNISMGSELDNVMEFEDIADNAADAPTETCFMHYE [P0AEP7] | – | 7.8 ± 3.2 h | 5.49 ± 0.69 h | 11.9 ± 2 h | 5.98 ± 0.97 h | 3.5 ± 0.04 h | 4.16 ± 0.24 h | 3.51 h | 3.85 ± 0.4 h | 2.87 ± 0.1 h | 3.45 h | 5.7 ± 0.37 h
MAKTAAALHILVKEEKLALDLLEQIKNGADFGKLAKKHSICPSGKRGGDLGEFRQGQMVPAFDKVVFSCPVLEPTGPLHTQFGYHIIKVLYRN [P0A9L5] | 5.57 ± 0.14 h | 9.11 ± 0.34 h | 4.54 ± 1.2 h | 10.6 ± 0.12 h | 6.6 ± 0.64 h | 4.65 ± 1.5 h | 4.743 ± 0.043 h | 6.25 ± 0.67 h | 6.01 ± 0.7 h | 3.05 ± 0.21 h | 4.22 ± 0.34 h | 7.37 ± 0.48 h
